The record followed here is patent US20210062216.

The target in the series is T1, Myc:SlRin4-3 (pGWB518, N-terminal Myc tag).
T1 chain: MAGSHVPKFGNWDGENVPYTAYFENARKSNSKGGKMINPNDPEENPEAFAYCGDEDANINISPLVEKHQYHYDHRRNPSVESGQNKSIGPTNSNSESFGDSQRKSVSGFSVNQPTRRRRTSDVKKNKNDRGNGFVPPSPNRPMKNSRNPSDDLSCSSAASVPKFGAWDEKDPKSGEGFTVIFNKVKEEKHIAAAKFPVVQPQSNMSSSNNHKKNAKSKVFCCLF

B1: AvrRpt2:Myc (avrRpt2 of Pseudomonas syringae pv. tomato NY15125 in pGWB417, C-terminal Myc tag) (protein)
chain: MKIAPVAINHSPLSREVPSHAAPTQAKQTNLQSEAGDLDARKSSASSPETRALLATKTVLGRHKIEVPAFGGWFKKKSSKHETGGSSANADSSSVASDSTEKPLFRLTHVPYVSQGNERMGCWYACARMVGHSVEAGPRLGLPELYEGREGPAGLQDFSDVERFIHNEGLTRVDLPDNERFTHEELGALLYKHGPIIFGWKTPNDSWHMSVLTGVDKETSSITFHDPRQGPDLAMPLDYFNQRLAWQVPHAMLYR
For the protein B1, the “abundance of Rin4 protein, c-Myc immunoblot of N. benthamiana leaves 28 hr after agroinfiltration” value is “a decrease in the abundance of Rin4 protein”.
